Data as given in publication PMC6877594, “Atomic structure of the human herpesvirus 6B capsid and capsid-associated tegument complexes” (Nature Communications, 2019).
Values joined by “and” are separate entries in the source; they are usually repeats but may differ in a detail not shown here. Equal entries are not always repeated.

B1: smallest capsid protein (SCP) of human herpesvirus 6B, U32 gene product (natural protein)
chain: MTTIRGDDLSNQITQISGSSSKKEEEKKKQQMLTGVLGLQPTMANHPVLGVFLPKYAKQNGGNVDKTAFRLDLIRMLALHRLNTKTGSD
notes: smallest capsid protein (SCP), U32 gene product of human herpesvirus 6B, strain Z29; 89 residues long; the model covers residues 23-83, residues 1-22 are disordered; Native protein in the virion capsid; 16 conformers modelled in each asymmetric unit; also called penton SCP; hexon SCP
B2: major capsid protein (MCP) of human herpesvirus 6B (natural protein)
chain: MENWQATEILPKIEAPLNIFNDIKTYTAEQLFDNLRIYFGDDPSRYNISFEALLGIYCNKIEWINFFTTPIAVAANVIRFNDVSRMTLGKVLFFIQLPRVATGNDVTAPKETTIMVAKHSEKHPINISFDLSAACLEHLENTFKNTVIDQILNINALHTVLRSLKNSADSLERGLIHAFMQTLLRKSPPQFIVLTMNENKVHNKQALSRVQRSNMFQSLKNRLLTSLFFLNRNNNSSYIYRILNDMMESVTESILNDTNNYTSKENIPLDGVLLGPIGSIQKLTNILSQYISTQVVSAPISYGHFIMGKENAVTAIAYRAIMADFTQFTVNAGTEQQDTNNKSEIFDKSRAYADLKLNTLKLGDKLVAFDHLHKVYKNTDVNDPLEQSLQLTFFFPLGIYIPTETGFSTMETRVKLNDTMENNLPTSVFFHNKDQVVQRIDFADILPSVCHPIVHDSTIVERLMKNEPLPTGHRFSQLCQLKITRENPTRILQTLYNLYESRQEVPKNTNVLKNELNVEDFYKPDNPTLPTERHPFFDLTYIQKNRATEVLCTPRIMIGNMPLPLAPISFHEARTNQMLEHAKTNSHNYDFTLKIVTESLTSGSYPELAYVIEILVHGNKHAFMILKQVISQCISYWFNMKHILLFCNSFEMIMLISNHMGDELIPGAAFAHYRNLVSLIRLVKRTISISNINEQLCGEPLVNFANALFDGRLFCPFVHTMPRNDTNAKITADDTPLTQNTVRVRNYEISDVQRMNLIDSSVVFTDNDRPSNENTILSKIFYFCVLPALSNNKACGAGVNVKELVLDLFYTEPFICPDDCFQENPISSDVLMSLIREAMGPGYTVANTSSIAKQLFKSLIYINENTKILEVEVSLDPAQRHGNSVHFQSLQHILYNGLCLISPITTLRRYYQPIPFHRFFSDPGICGTMNADIQVFLNTFPHYQRNDGGFPLPPPLALEFYNWQRTPFSVYSAFCPNSLLSIMTLAAMHSKLSPVAIAIQSKSKIHPGFAATLVRTDNFDVECLLYSSRAATSIILDDPTVTAEAKDIVTTYNFTQHLSFVDMGLGFSSTTATANLKRIKSDMGSKIQNLFSAFPIHAFTNTDINTWIRHHVGIEKPNPSEGEALNIITFGGINKNPPSILLHGQQAICEVILTPVTTNINFFKLPHNPRGRESCMMGTDPHNEEAARKALYDHTQTDSDTFAATTNPWASLPGSLGDILYNTAHREQLCYNPKTYSPNAQFFTESDILKTNKMMYKVINEYCMKSNSCLNSDSEIQYSCSEGTDSFVSRPCQFLQNALPLHCSSNQALLESRSKTGNTQISETHYCNYAIGETIPLQLIIESSI
notes: major capsid protein (MCP) of human herpesvirus 6B, strain Z29; 1345 amino acids long; domains described over a.a; 1-1345; Native protein in the virion capsid; 16 conformers (15 hexon, 1 penton) modelled in each asymmetric unit; also called penton MCP; hexon MCP
B3: tegument protein pU11 of human herpesvirus 6B (natural protein)
chain: MDLKAQSIPFAWLDRDKVQRLTNFLSNLENLENVDLREHPYVTNSCVVREGEDVDELKTLYNTFILWLMYHYVLSKRKPDYNAIWQDITKLQNVVNEYLKSKGLNKGNFENMFTNKEKFESQFSDIHRALLRLGNSIRWGSNVPIDTPYVNLTAEDSSEIENNLQDAEKNMLWYTVYNINDPWDENGYLVTSINKLVYLGKLFVTLNQSWSKLEKVAMSQIVTTQNHLSGHLRKNENFNAVYSQRVLQTPLTGQRVESFLKIITSDYEIIKSSLESYSASKAFSVPENGPHSLMDFASLDGRMPSDLSLPSISIDTKRPSADLARLKISQPKSLDAPLKTQRRHKFPESDSVDNAGGKILIKKETLGGRDVRATTPVSSVSLMSGVEPLSSLTSTNLDLRDKSHGNYRIGPSGILDFGVKLPAEAQSNTGDVDLLQDKTSIRSPSSGITDVVNGLANLNLRQNKSDVSRPWSKNTAANADVFDPVHRLVSEQTGTPFVLNNSDVAGSEAKLTTHSTETGVSPHNVSLIKDLRDKDGFRKQKKLDLLGSWTKEKNDKAIVHSREVTGDSGDATETVTARDSPVLRKTKHANDIFAGLNKKYARDVSRGGKGNSRDLYSGGNAEKKETSGKFNVDKEMTQNEQEPLPNLMEAARNAGEEQYVQAGLGQRVNKILAEFTNLISLGEKGIQDILHNQSGTELKLPTENKLGRESEEANVERILEVSDPQNLFKNFKLQNDLDSVQSPFRLPNADLSRDLDSVSFKDALDVKLPGNGEREIDLALQKVKAGERETSDFKVGQDETLIPTQLMKVETPEEKDDVIEKMVLRIRQDGETDEETVPGPGVAESLGIAAKDKSVIAS
notes: tegument protein pU11 of human herpesvirus 6B, strain Z29; 858 a.a. long; wild-type full-length protein inside the virion, only a.a; 7-275 (pU11nt) are resolved and modelled; also called pU11nt (the resolved N-terminal one-third, a.a. 7-275); pU11nt-a-1
B4: triplex dimer protein (Tri2) of human herpesvirus 6B (natural protein)
chain: METVYCTFDHKLSLSDISTLCKLMNIVIPIPAHHHLIGSGNLGLYPIVSSNKDYVHIRNVLRTMVVTILQKVEGNQLVLRKPMTGQQYAIKNTGPFPWEKGDTLTLIPPLSTHSEEKLLKLGDWELTVPLVVPTAIAAEINIRLLCIGLIAVHREYNEMQTIIDELCSIQYRDVLIKLPDIVNDKQSMYSMKTACISLSMITAMAPDIVRTYIDRLTLEDHSMLLIKCQELLSKRTTLSTQRCGQLHATDIKDELKKIKSVLTMIDQINSLTNEKTYFVVCDVSADNRMATCIYKN
notes: triplex dimer protein (Tri2) of human herpesvirus 6B, strain Z29; domains clamp (a.a. 1-86), trunk (a.a. 87-181 and 276-296), embracing arm (a.a. 182-275); Native protein in the virion capsid; two conformers (Tri2A, Tri2B) of the same protein in each triplex; also called Tri2A; Tri2B

How the values were obtained:
[1] = biological target: B2; assay: cryo-EM structure; in situ in HHV-6B (Z29) virions pelleted from SupT1 culture supernatant and resuspended in PBS; icosahedral reconstruction ~5.1 Å, sub-particle reconstructions at the fivefold, threefold and twofold axes at 3.82, 3.77 and 3.77 Å; atomic models of 59 conformers; conditions: partners not purified
[2] = biological target: the molecule itself; assay: as above

Binder | stoichiometry N [1] | stoichiometry N [2]
B1 | 1 | –
B2 | – | 5 and 6
B3 | – | 4
B4 | – | 2
